Results on 3 molecules are retold here after PMC5611513 (2017).

B1: TplEi (natural protein)
chain: CTSFSSSRSSSMDKTGWITHCFGRFLIDLPPDAVINAGYYLWGDRIEYLDDKPTELAARVDRLEQEWRTQRHKSKGNMFLRKIDFGNESVGLLSWSSEVASKTYLLDTYVTSKPTWHVYRWKGKVSVDREQHAVEISRALARNLRSRAPKEIPSEPGFCIDHAYIAGDSFQVERFGVGVTFPEHPGARFEFRSSTGAELNSLLERVDGFVQNMLSTFAGMETLRKGKHPVGSLPGEEYLVAGSDKGQRGYTFMWEVQGKEESLTEPNLTAGLAVLERSNENGKPPPPAFKSDKEALELWDTIVDSIRVRPTSSSPRGGNAGPSPAPKPATPGGQTLGDHYVYEEFLSSLKPKDSWLDDL

Some targets named below: L91A; G98A; I88A.
What all share (experiment): ITC
Background: Isothermal titration calorimetry measures the heat released or taken up as one component is titrated into another.

In the assay “TplEi” the target is B1.

Ac-DDLFASIGALWTWAWRGPKARQELLKAEQVEVDD-NH2 [A peptides (“L” peptide, TplE 82-108 plus EQVEVDD)]: the Ka with TplEi was 7.98e+06 M⁻¹. Ac-DDLFASIGALWTWAWRGPKARQELLKAEQ-NH2 [B peptides (“L” peptide, TplE 82-108 plus EQ)] showed a Ka in the assay with TplEi of 2.09e+06 M⁻¹. For the molecule B1, the results for the Kd with L91A, in the assay with G98A and with I88A were 3.7 µM, 1.31 µM and 4.8 µM, respectively.

As a reminder, the Kd is the equilibrium constant for the complex coming apart. Read a low Kd as a tighter complex.
